A short description of this series: total protein half-life in vivo (active degradation + dilution); higher = more stable protein.
Where [1] appears, read: E. coli NCM3722 delta-clpP delta-lon delta-hslV, growth: N-lim chemostat, doubling time 6 h.
Where [2] appears, read: E. coli NCM3722 delta-clpP, growth: N-lim chemostat, doubling time 6 h.
[3] abbreviates: E. coli NCM3722 delta-hslV, growth: N-lim chemostat, doubling time 6 h.
The mark [4] stands for this setting: E. coli NCM3722 delta-lon, growth: N-lim chemostat, doubling time 6 h.
Setting [5] is: E. coli NCM3722 delta-smpB, growth: N-lim chemostat, doubling time 6 h.
Setting [6] is: wild type E. coli NCM3722, growth: C-lim chemostat, doubling time 3 h.
Setting [7] is: wild type E. coli NCM3722, growth: C-lim chemostat, doubling time 6 h.
[8] abbreviates: wild type E. coli NCM3722, growth: C-lim chemostat, doubling time 12 h.
Where [9] appears, read: wild type E. coli NCM3722, growth: N-lim chemostat, doubling time 6 h.
[10] abbreviates: wild type E. coli NCM3722, growth: N-lim chemostat, doubling time 12 h.
Where [11] appears, read: wild type E. coli NCM3722, growth: P-lim chemostat, doubling time 6 h.
Setting [12] is: wild type E. coli NCM3722, growth: P-lim chemostat, doubling time 12 h.

± gives the standard deviation of the averaged measurements.

As for “MKFVSFNINGLRARPHQLEAIVEKHQPDVIGLQETKVHDDMFPLEEVAKLGYNVFYHGQKGHYGVALLTKETPIAVRRGFPGDDEEAQRRIIMAEIPSLLGNVTVINGYFPQGESRDHPIKFPAKAQFYQNLQNYLETELKRDNPVLIMGDMNISPTDLDIGIGEENRKRWLRTGKCSFLPEEREWMDRLMSWGLVDTFRHANPQTADRFSWFDYRSKGFDDNRGLRIDLLLASQPLAECCVETGIDYEIRSMEKPSDHAPVWATFRR”, the “total protein half-life in vivo” value runs as follows: under setting [1], 5.619 ± 0.036 h; under setting [2], 5.58 ± 0.29 h; under setting [3], 5.75 ± 0.011 h; under setting [4], 6.04 ± 1.2 h; under setting [5], 5.27 ± 0.3 h; under setting [6], 3.14 ± 0.45 h. The “total protein half-life in vivo” value is, setting by setting: under setting [7], 5.863 ± 0.013 h; under setting [8], 10.9 ± 0.79 h; under setting [9], 5.46 ± 0.4 h; under setting [10], 10.8 ± 0.2 h; under setting [11], 5.61 ± 0.2 h; under setting [12], 11.9 ± 1.3 h.
Consider “MRKIIHVDMDCFFAAVEMRDNPALRDIPIAIGGSRERRGVISTANYPARKFGVRSAMPTGMALKLCPHLTLLPGRFDAYKEASNHIREIFSRYTSRIEPLSLDEAYLDVTDSVHCHGSATLIAQEIRQTIFNELQLTASAGVAPVKFLAKIASDMNKPNGQFVITPAEVPAFLQTLPLAKIPGVGKVSAAKLEAMGLRTCGDVQKCDLVMLLKRFGKFGRILWERSQGIDERDVNSERLRKSVGVERTMAEDIHHWSECEAIIERLYPELERRLAKVKPDLLIARQGVKLKFDDFQQTTQEHVWPRLNKADLIATARKTWDERRGGRGVRLVGLHVTLLDPQMERQLVLGL”, for which the “total protein half-life in vivo” value under setting [1] worked out at 4.16 ± 0.15 h.
For “MLSGKDLGRAIEQAINKKIASGSVKSKAEVARHFKVQPPSIYDWIKKGSISKDKLPELWRFFSDVVGPEHWGLNEYPIPTPTNSDTKSELLDINNLYQAASDEIRAIVAFLLSGNATEPDWVDHDVRAYIAAMEMKVGKYLKALESERKSQNITKTGT”, the “total protein half-life in vivo” value is, setting by setting: under setting [2], 4.75 h; under setting [3], 5.53 ± 0.81 h; under setting [4], 7.1 h; under setting [5], 5.32 h; under setting [7], 5.48 h; under setting [8], 9.89 h. Besides, the “total protein half-life in vivo” value under setting [9] was determined as 4.71 h, the “total protein half-life in vivo” value under setting [10] stood at 8.69 h, the “total protein half-life in vivo” value under setting [11] is 5.35 h and the “total protein half-life in vivo” value under setting [12] was determined as 10.4 ± 2 h.
As to “MKTFSDRWRQLDWDDIRLRINGKTAADVERALNASQLTRDDMMALLSPAASGYLEQLAQRAQRLTRQRFGNTVSFYVPLYLSNLCANDCTYCGFSMSNRIKRKTLDEADIARESAAIREMGFEHLLLVTGEHQAKVGMDYFRRHLPALREQFSSLQMEVQPLAETEYAELKQLGLDGVMVYQETYHEATYARHHLKGKKQDFFWRLETPDRLGRAGIDKIGLGALIGLSDNWRVDSYMVAEHLLWLQQHYWQSRYSVSFPRLRPCTGGIEPASIMDERQLVQTICAFRLLAPEIELSLSTRESPWFRDRVIPLAINNVSAFSKTQPGGYADNHPELEQFSPHDDRRPEAVAAALTAQGLQPVWKDWDSYLGRASQRL”, the “total protein half-life in vivo” value turned out to be 4.35 ± 0.4 h under setting [1]; 0.761 ± 0.12 h under setting [2]; 0.71 ± 0.041 h under setting [3]; 1.45 ± 0.13 h under setting [4]; 0.7458 ± 0.0057 h under setting [5]; 0.948 ± 0.075 h under setting [6]. For the same sequence, the “total protein half-life in vivo” value runs as follows: under setting [7], 1.02 ± 0.03 h; under setting [8], 0.988 ± 0.12 h; under setting [9], 0.86 ± 0.0097 h; under setting [10], 1.08 ± 0.084 h; under setting [11], 1.09 ± 0.25 h; under setting [12], 1.93 ± 0.64 h.
For the sequence “MAWNQPGNNGQDRDPWGSSKPGGNSEGNGNKGGRDQGPPDLDDIFRKLSKKLGGLGGGKGTGSGGGSSSQGPRPQLGGRVVTIAAAAIVIIWAASGFYTIKEAERGVVTRFGKFSHLVEPGLNWKPTFIDEVKPVNVEAVRELAASGVMLTSDENVVRVEMNVQYRVTNPEKYLYSVTSPDDSLRQATDSALRGVIGKYTMDRILTEGRTVIRSDTQRELEETIRPYDMGITLLDVNFQAARPPEEVKAAFDDAIAARENEQQYIREAEAYTNEVQPRANGQAQRILEEARAYKAQTILEAQGEVARFAKLLPEYKAAPEITRERLYIETMEKVLGNTRKVLVNDKGGNLMVLPLDQMLKGGNAPAAKSDNGASNLLRLPPASSSTTSGASNTSSTSQGDIMDQRRANAQRNDYQRQGE [P0ABC7]”, the “total protein half-life in vivo” value was 7 ± 0.75 h under setting [1]; 6.71 ± 0.23 h under setting [3]; 6.55 ± 0.23 h under setting [4]; 6.38 ± 0.49 h under setting [5]; 2.99 ± 0.1 h under setting [6]; 6.35 ± 0.6 h under setting [7]. The “total protein half-life in vivo” value is, setting by setting: under setting [8], 13.1 ± 1 h; under setting [9], 6.52 ± 0.65 h; under setting [10], 13.8 ± 0.55 h; under setting [11], 6.06 ± 0.31 h; under setting [12], 13.98 ± 0.078 h.
On to “MRIEEDLKLGFKDVLIRPKRSTLKSRSDVELERQFTFKHSGQSWSGVPIIAANMDTVGTFSMASALASFDILTAVHKHYSVEEWQAFINNSSADVLKHVMVSTGTSDADFEKTKQILDLNPALNFVCIDVANGYSEHFVQFVAKAREAWPTKTICAGNVVTGEMCEELILSGADIVKVGIGPGSVCTTRVKTGVGYPQLSAVIECADAAHGLGGMIVSDGGCTTPGDVAKAFGGGADFVMLGGMLAGHEESGGRIVEENGEKFMLFYGMSSESAMKRHVGGVAEYRAAEGKTVKLPLRGPVENTARDILGGLRSACTYVGASRLKELTKRTTFIRVQEQENRIFNNL”, for which the “total protein half-life in vivo” value under setting [1] is 6.23 ± 0.89 h; the “total protein half-life in vivo” value under setting [2] worked out at 4.46 ± 0.16 h; the “total protein half-life in vivo” value under setting [3] came to 4.34 ± 0.1 h; the “total protein half-life in vivo” value under setting [4] was 5.46 ± 0.17 h; the “total protein half-life in vivo” value under setting [5] was 4.22 ± 0.21 h; the “total protein half-life in vivo” value under setting [6] came to 2.77 ± 0.19 h. Also, the “total protein half-life in vivo” value worked out at 6.13 ± 0.25 h under setting [7]; 9.9351 ± 0.0054 h under setting [8]; 4.71 ± 0.14 h under setting [9]; 7.56 ± 0.75 h under setting [10]; 6.2 ± 0.3 h under setting [11]; 11 ± 0.55 h under setting [12].

The values above are taken from the supplement of paper PMC11246515.
